{
  "source": "patent US20230192878A1",
  "about": "(published 2023)",
  "target": "T1, B-cell maturation antigen (BCMA) (human, UniProt Q02223 1-184)",
  "T1 sequence (looked up)": "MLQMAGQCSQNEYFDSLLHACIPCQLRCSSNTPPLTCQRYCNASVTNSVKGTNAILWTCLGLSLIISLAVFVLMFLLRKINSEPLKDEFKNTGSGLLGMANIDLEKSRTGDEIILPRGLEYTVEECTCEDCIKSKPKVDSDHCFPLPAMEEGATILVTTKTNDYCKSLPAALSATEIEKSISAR",
  "assay": "cell-based or functional assay",
  "data": [
    {"binder": "PF-06863135 (bispecific antibody, human IgG2) heavy 1: EVQLVESGGGLVQPGGSLRLSCAASGFTFSDYYMTWVRQAPGKGLEWVAFIRNRARGYTSDHNPSVKGRFTISRDNAKNSLYLQMNSLRAEDTAVYYCARDRPSYYVLDYWGQGTTVTVSSASTKGPSVFPLAPCSRSTSESTAALGCLVKDYFPEPVTVSWNSGALTSGVHTFPAVLQSSGLYSLSSVVTVPSSNFGTQTYTCNVDHKPSNTKVDKTVERKCRVRCPRCPAPPVAGPSVFLFPPKPKDTLMISRTPEVTCVVVAVSHEDPEVQFNWYVDGVEVHNAKTKPREEQFNSTFRVVSVLTVVHQDWLNGKEYKCKVSNKGLPSSIEKTISKTKGQPREPQVYTLPPSREEMTKNQVSLTCLVKGFYPSDIAVEWESNGQPENNYKTTPPMLDSDGSFFLYSRLTVDKSRWQQGNVFSCSVMHEALHNHYTQKSLSLSPGK light 1: not shown heavy 2: EVQLLESGGGLVQPGGSLRLSCAASGFTFSSYPMSWVRQAPGKGLEWVSAIGGSGGSLPYADIVKGRFTISRDNSKNTLYLQMNSLRAEDTAVYYCARYWPMDIWGQGTLVTVSSASTKGPSVFPLAPCSRSTSESTAALGCLVKDYFPEPVTVSWNSGALTSGVHTFPAVLQSSGLYSLSSVVTVPSSNFGTQTYTCNVDHKPSNTKVDKTVERKCEVECPECPAPPVAGPSVFLFPPKPKDTLMISRTPEVTCVVVAVSHEDPEVQFNWYVDGVEVHNAKTKPREEQFNSTFRVVSVLTVVHQDWLNGKEYKCKVSNKGLPSSIEKTISKTKGQPREPQVYTLPPSREEMTKNQVSLTCEVKGFYPSDIAVEWESNGQPENNYKTTPPMLDSDGSFFLYSKLTVDKSRWQQGNVFSCSVMHEALHNHYTQKSLSLSPGK light 2: EIVLTQSPGTLSLSPGERATLSCRASQSVSSSYLAWYQQKPGQAPRLLMYDASIRATGIPDRFSGSGSGTDFTLTISRLEPEDFAVYYCQQYQSWPLTFGQGTKVEIKRTVAAPSVFIFPPSDEQLKSGTASVVCLLNNFYPREAKVQWKVDNALQSGNSQESVTEQDSKDSTYSLSSTLTLSKADYEKHKVYACEVTHQGLSSPVTKSFNRGEC", "values": [
      {"measurement": "EC50 (nM) of cell viability, H929-Luc co-cultured with human CD3+ T cells, 72 hr, with GSI (nirogacestat)", "value": 0.0055, "unit": "nM"},
      {"measurement": "EC50 (nM) of cell viability, H929-Luc co-cultured with human CD3+ T cells, 72 hr, without GSI", "value": 0.167, "unit": "nM"},
      {"measurement": "EC50 (nM) of cell viability, Molp8-Luc co-cultured with human CD3+ T cells, 72 hr, with GSI (nirogacestat)", "value": 0.0202, "unit": "nM"},
      {"measurement": "EC50 (nM) of cell viability, Molp8-Luc co-cultured with human CD3+ T cells, 72 hr, without GSI", "value": 0.108, "unit": "nM"},
      {"measurement": "EC50 (nM) of cell viability, OPM2-Luc co-cultured with human CD3+ T cells, 72 hr, with GSI (nirogacestat)", "value": 0.0033, "unit": "nM"},
      {"measurement": "EC50 (nM) of cell viability, OPM2-Luc co-cultured with human CD3+ T cells, 72 hr, without GSI", "value": 0.0528, "unit": "nM"},
      {"measurement": "EC50 (nM) of cell viability, RPMI8226-Luc co-cultured with human CD3+ T cells, 72 hr, with GSI (nirogacestat)", "value": 0.0017, "unit": "nM"},
      {"measurement": "EC50 (nM) of cell viability, RPMI8226-Luc co-cultured with human CD3+ T cells, 72 hr, without GSI", "value": 0.0092, "unit": "nM"}
    ]}
  ]
}
